The values below come from article PMC3958310.

The test concerns the target DENV1 envelope (E) protein, strain Western Pacific 74, on the virus surface (dengue virus serotype 1, strain Western Pacific 74).

B1: Fab fragment of HMAb 1F4 (Fab, V domains shown)
VH: QVQLVESGGGVVQPGRSLRLSCAASGFTFSAYGMHWVRQAPGKGLEWVAIIWYDGSNKYYADSVKGRFTISRDNSKNTLHLQMNSLRAEDTAIYYCARDKNPGTKPYYHYGMDVWGQGTTVTVSS
VL: QSVLTQPPSVSEAPRQRVTISCSGSSSNIGNNAVNWYQQFPGKAPKLLIYYDDLLPSGVSDRFSGSKSGTSASLAISGLQSEDEAYYYCAAWDDSLIGVVFGGGTKLTVL
B1 registered a neutralisation of DENV1 (Western Pacific 74) in U937 cells expressing DC-SIGN, flow cytometry, Neut50 of 0.11 µg/mL.
